Experiment: label from the status in PepcDB records
With “MSSNIAVVGDRDTVTGFRLGGVREGYVVETPDEAEETIRNLIRDGFSIIIVTEKIGDELREFIEETTSSSALPMIIEIPDKTGPSERETDPLRDLIKRVIGVEMVK” the protein production was “failed”.
With “MSSNVPADMINLRLILVSGKTKEFLFSPNDSASDIAKHVYDNWPMDWEEEQVSSPNILRLIYQGRFLHGNVTLGALKLPFGKTTVMHLVARETLPEPNSQGQRNREKTGESNCCVIL” the protein production was “not failed”.
For “MSSPGGGTRFALVAGTTETAGRAGISAAGADPELMSVTPAADAELVTYGTPVRTDVTPVSPSGCPTPALVTRAAREVLGFDVTVVDGGLAEKTGAPTVSVGARPGKDIAEQDPVSTAHGAFAAARQFGQSLPADELYLGETIPGGTTTALGVLRALGEDGMVSSSLPENPTAQKSEVVAEGLQASSLEPGDAANEPKRAVRRMGDPVLATLAGLTAGAVESDTAVTLAGGSQCVAVAALVRHGGYEGPLGLATTSYVADDESADVRASVDRLDLDLTVTDPGFDRSDHVAMERFVAGEAKEGVGMGGALALAD”, the protein production was “not failed”.
For “MSSQLDECNRLLWEKCPVGLVLWRKNGALIDANSTYAAILGSTVPETLNFNYWQITPENYLASERTILEQLEQTGCHQAYEKEYLHQDGHLVPVKVSTVIIEKDGEKLMWSSVEDIS”, the protein production was “not failed”.
In the case of “MSSQVIPALPKTFSSSLDLWREKNDQLVRQAKQLTRDSRPSLRRQQSAQDTLEGLRELLLTLQGLPAAVPALPLELTVLCNCIILRASLVQAFTEDLTQDLQRGLERVLEAQHHLEPKSQQGLKELWHSVLSASSLPPELLPALHCLASLQAVFWMSTDHLEDLTLLLQTLNGSQTQSSEDLLLLLKSWSPPAEESPAPLILQDAESLRDVLLTAFACRQGFQELITGSLPHAQSNLHEAASGLCPPSVLVQVYTALGACLRKMGNPQRALLYLTEALKVGTTCALPLLEASRVYRQLGDRAAELESLELLVEALSATHSSETFKSLIEVELLLPQPDPASPLHCGTQSQAKHLLASRCLQTGRAEDAAEHYLDLLAMLLGGSETRFSPPTSSLGPCIPELCLEAAAALIQAGRALDALTVCEELLNRTSSLLPKMSSLWENARKRAKELPCCPVWVSATHLLQGQAWSQLKAQKEALSEFSQCLELLFRTLPEDKEQGSDCEQKCRSDVALKQLRVAALISRGLEWVASGQDTKALSDFLLSVQICPGNRDGSFYLLQTLKRLDRKNEASAFWREAHSQLPLEDAAGSLPLYLETCLSWIHPPNREAFLEEFGTSVLESCVL”, the protein production was “failed”.
With “MSSRMARLGLSTYRLAGTVASPVVGLYLTYRTAKGKEDRARRLERFGYPSANRPQGPLVWFHAASVGETNAVIPLIREIRRRDIHVILTTGTITSARLAAERLGQEAIHQYVPLDLKPSVSRFLDYWQPDCAIIAESEIWPATVLELGRRRIPQILVNARMSDRSFARWRRRQSIAEALFENLALVIAQSDVDAERFRDLGAVPVITSGNLKVDTDAPPYDSAVFARYKKQIGDRKTWAAISTFDGEENAAGIVHRVLKERDRQLTIIVPRHPERSDEIEAALVKQGLKVARRTRDDVLSADVDIFLGDTIGEMGLYLRLTEIAFVGRSLFAEGGQNPLEPAMLGCAILSGGNVQNFREAYQKLARSGSARMVRDTEMLAKGVHYLLTNDEARRNMIEAGVATVHEMRGALSATVKGLEPYINPLTVKARLLPKAAAQV” the protein production was “failed”.
For “MSSRQQDTAPCNHRFSGSVPVFSAAPCPHPAASFISLPAGSPYDEKRFVPAPRRHVPMLNYIWSGLIIGSLLFALTVDTQELVENRFRNETALPVALDFPDGYAPDARRQPVEIRIDSATYRDVYGVNAAPDPVYAGTLVQTQEGRKVEFDPDADLPEPLATIQSFHATDDNPALRGALQGTSRTTAGVGRTETALQFEPVRFRKLNDIAQAALNFAETAASLALSLIGVLGLMLGLVKIGEEAGLIESLTGIVQPILSPLFPNVPDDHPALANISLNLLANVFGLGNAATPLGIKAMEDLQELNPSDEKASDDMVMLLALNTSSVQLVPPSLLVAIMGLQINQLFFSITLATLCSTVAGILGTLALHRLPYFRATAPHRTADAEDPDE”, the protein production was “failed”.
In the case of “MSSRTRARGSKRAAGVHTVSIPRQRGRRRAQPFVIVFPESPSLTREALGFIGRALWKGRRALAPTALALLAFAVTGLLHVMAWWSSLILAPLAAGPLVWLAVMQVRRPGRGAVVLWRAGLALLATFTAAWAALAAGFGPLAGPLDLVWLLMWIAAQTAWLFVRRSH”, the protein production was “failed”.
With “MSSSNQDISIENTDLLTEISVAYYQDGATQEEISRKFAISRAKVGRMLKQARDEGIVEITVKYHPVFSAKIEQRLIERFGVKRALVALDQPNEEAQRLQVSGLVSNYLTSTLKNGMVVTVGQGRNVSSVAHHIGVITPRDCKFVCGIGGIHPRGGMYNADHICRQLAKKYGGTSETLYAPAYAENREQKMAFMQNATVKQTLDLARKADVALVGIGDMSENSYMVDLGWFTPDEVVQSRLKQGVVGDFAGYDFFDIHGNVANTVMSDRVIGLGIEEFRPIAEVIAIAAENSKPLALLGALRTGAIDVIATSVSNALTVLNLDEQMHGNAASES” the protein production was “failed”.
With “MSSSSVEQQVVQHFSHTHPLTKVDEYGEFTCGGCKTYGFGKTYRCAPCDYVLHDHCATCPFTLISFMHPQHELRLFVNGSENMCNICHRLVEGVYYHCETCGFDVHPLCTQHHQHVSYVPHPAHLLELSQCGASNTCMVCRGAILSWRYKCGPCMLDVHVECVNSSAPAATEPQMDLNTSQDPQPYNDECGGIHNYEHTNKGQVSGPSKRRRVFRFFKDVTVEVVSSIITEML” the protein production was “failed”.
In the case of “MSSTILVLGATGTVGRHVVDGLLAKGEAVKAASRAGKPVAAAEGVAFDYARPETFGPALEGVDRAYVLLASGYVDSKGLLLPVIEAAATRKVKVVLQSVIGVDADDSIPYRQVEIALEKSDTPYVILRPNWFSDNFHTFWKPGIDHGQIALPAAEGKSSFIDARDIAASGVAVLTSSSFDGKAFNLTGPEALSYAEAAAILSEAIGKPVTYNAVSDEAFIEMLTGAGVPAGYASFLASIFYPVRQNWTAVMTGDVETLTGKAPRSLKTYAADYAAALKA”, the protein production was “failed”.
For “MSSTSPNLQKAIDLASKAAQEDKAGNYEEALQLYQHAVQYFLHVVKYEAQGDKAKQSIRAKCTEYLDRAEKLKEYLKNKEKKAQKPVKEGQPSPADEKGNDSDG”, the protein production was “not failed”.
With “MSSVPSAGQVRRRRVFYIPGYDPIHPRRYRELYRKESAEQARISGYSVTLKPKTTKGPYGWHVRSEQDGAEVAADVEVLVWSDIVRGSMSNTIPATYAQLARTAWTYIASGVLWRLMRLRKGPVIAALYPVGMLLAQLFAALFLVWLGWRLGGLTGWPLAALAGMGVGAGAGVYLLRWFRSKDGTFFAYYLMHDYAYSARWRGANPPELEARIGDFAERIAGALASDADEVLVVGHSSGAHVGVSVLADLIRAGRVPADGPALGFLTLGQVVPMVSFLPEAQRLRADLHYLCTRDELAWVDVSAPGDGCAFALCDPVSVSGVAPATGKRWPLVLSAAFTKTLSPARWAELRWRFFRLHFQYLCAFDQVGDYDYFRITAGPQTLAARYRDRAPSKSRIERAVSKYTDMGAS” the protein production was “failed”.
With “MSSWRPAVRTDTGWPLIRRTARCHMLRNPKNAGWCRSSAATASWRSCTVPRASAWPTSRTAVPRPMVGYQCGQVFRACCVKSQETGDLDVGGLQETDKIIEVEEEQEDPYLNDRCRGGGPCKQQCRDTGDEVVCSCFVGYQLLSDGVSCEDVNECITGSHSCRLGESCINTVGSFRCQRDSSCGTGYELTEDNSCKDIDECESGIHNCLPDFICQNTLGSFRCRPKLQCKSGFIQDALGNCIDINECLSISAPCPIGHTCINTEGSYTCQKNVPNCGRGYHLNEEGTRCVDVDECAPPAEPCGKGHRCVNSPGSFRCECKTGYYFDGISRMCVDVNECQRYPGRLCGHKCENTLGSYLCSCSVGFRLSVDGRSCEDINECSSSPCSQECANVYGSYQCYCRRGYQLSDVDGVTCEDIDECALPTGGHICSYRCINIPGSFQCSCPSSGYRLAPNGRNCQDIDECVTGIHNCSINETCFNIQGGFRCLAFECPENYRRSAATLQQEKTDTVRCIKSCRPNDVTCVFDPVHTISHTVISLPTFREFTRPEEIIFLRAITPPHPASQANIIFDITEGNLRDSFDIIKRYMDGMTVGVVRQVRPIVGPFHAVLKLEMNYVVGGVVSHRNVVNVHIFVSEYWF” the protein production was “failed”.
In the case of “MSTDFDRIYLNQSKFSGRFRIADSGLGWKISTSGGSAANQARKPFLLPATELSTVQWSRGCRGYDLKINTKNQGVIQLDGFSQDDYNLIKNDFHRRFNIQVEQREHSLRGWNWGKTDLARNEMVFALNGKPTFEIPYARINNTNLTSKNEVGIEFNIQDEEYQPAGDE”, the protein production was “not failed”.
In the case of “MSTDRETVRSYDAVAAEYAAEAAVMPEWVATEIDVFVTELSGSGRVLEIGSGGGRDALELEKRGMSVRRTDISKGFVELLRESGFEADLLDPLTDDLADPQRPSMPYDGIWACACLIHVARGDFGTVLGRLAEATRSGGRLHVSVREGDGEDLSTHGSAAAPRRYVETYWREPALRSALTDAGWIVNDVRRYVGRPHDRWLSVRASRA”, the protein production was “failed”.
For “MSTETAEKPGETTPESHVFEADVARLLHMMVHSVYSDKDVFLRELVSNAADACEKLRYEAITTPGLLTSDPDPRIQLRLDADNRQLILEDNGIGMSRAELIEALGTIARSGTRAFMERIEASKADAAKTGEDAQLIGQFGVGFYSCFMVADKVDVVTRRAGETQAWIWSSDGKGSYSISEIDAESAPARGTRITLHLMEDAKDYATRARVERIVKQQSGHVPVAITLVEKPGDEPTRITEGTALWTRPKSEISSEDYADFYRGIAGQYDEPALTVHFRAEGRHEYTALAFVPGTPPFDLFDPDRKGRIKLYVKRVFITDDAELLPRYLRFVRGLVDTADLPLNVSREMIQESPILSAIRKGVTNRILTSVEKLAQNEPETYKTLWENFGAVLKEGLYEDFERRSQLLGLTRFRTTTSGDDQRSLADYLKDLKPEQDSIYYLAGSNIEQLRASPQLEGFRARGIEVLLLSDQIDSFWVMNAPEFEGKTFKSVSQGAADLAKFAKADAGADSDQDSNDQAKADIAGFLALAKEQLKDQVADVRASDRLTESPVCLVAPESGYDRQLEKILAGAGQLASTSKPVLELNADHVLVKAMAGAQHTPALQNDAIHLLYDQARILDGEKPADARAFAERMGRLLEKALRA”, the protein production was “failed”.
In the case of “MSTFQQPDPRDRPARLTVGVVGAGRVGPALAASLQLAGHRPVAVSGVSDTSVRRAAAMLPDVPLVTPAQVLERADLVLLTVPDDALPGLVEGLAETGAVRPGQLLVHTSGRYGTKVLDPARSAGALPLALHPAMTFTGTAVDVQRLAGCSFGVTAPDELRLAAEALVIEMGGEPEWIAEENRPLYHAALALGANHLVTLVAESMELLRTAGVEAPDHMLGPLLGAALDNALRSGDGALTGPVARGDAGTVAAHVAELRKHAPGTVPGYLAMARATADRALAHGLLKPELAEDLLGVLANGTEGDAG”, the protein production was “failed”.
For “MSTIEERTPGAVATEPVGHEGARVSINEKNVWSLGAGPAAFALLAMIVLMIASGVFFAQSINTLENDGGGTLAVTGLIASIVVFTVALVVTITSVKVVSPGHTLTVQFFGRYIGTLRRTGLSFVPPLSVTKKVSVRVRNFETNEAKVNDYNGNPINIAAIIVWQVADTAQASFSVEDFEEFLHQQAESALRHVATQHPYDSPVDGRVSLRGATDEVSEELADEVAQRAAVAGLEIVEARISSLSYAPEIAQAMLQRQQASAIVDAREKIVEGAVTMVETALDQLEQREIVDLDPERRAAMVSNLLVVLCSDTNAQPIVNAGSLYQ”, the protein production was “failed”.
In the case of “MSTKLYYIYDPMCSWCWGYRPVWDLLQQHLPKSIDVEYVAGGLAPDSDSAMPIDQQQMIQNHWRTIEQKLGTKFNYDFWRENTARRSTYNACRAAIAAHKQSCQKAMIDAIQQAYYLRALNPSDVDVLVSVAKELSEQTSPTLDVAQFIVDINSSETNKELAKQVTLARELTQQGFPSLVLDVDGVIQQIPLDYSDYKTTLAYIIKKTS”, the protein production was “failed”.
In the case of “MSTKTMKEKAVELLQKCEVVTLASVNKEGYPRPVPMSKIAAEGISTIWMSTGADSLKTIDFLSNPKAGLCFQEKGDSVALMGEVEVVTDEKLKQELWQDWFIEHFPGGPTDPGYVLLKFTANHATYWIEGTFIHKKLD”, the protein production was “not failed”.
